Entries after “also recorded” stand apart in the source; their conditions may differ.
Tested on: mevalonate biosynthetic pathway
Experiment: Mevalonate production with synthetic scaffolds in E. coli
Type: cell-based, Escherichia coli
Method: The scalability of the co-recruitment strategy was tested by building separate scaffold devices capable of co-localizing multiple enzymes. Scaffolds provide a means for physically separating the binding elements for design control from the catalytic activities. Thus, the only modification to the enzyme necessary for gaining modular control over complex formation is the addition of a single interaction ligand to each enzyme. A peptide ligand specific for a corresponding protein-protein interaction domain was recombined to the C-terminus of each enzyme of the mevalonate biosynthetic pathway (FIG. 3a). Scaffolds were built by tethering together, via flexible nine amino acid glycine-serine linkers, different numbers of three protein-protein interaction domains from metazoan genomes: the GTPase Binding Domain (GBD) from the actin polymerization switch N-WASP, the SH3 domain, and the PSD95/DlgA/Zo-1 (PDZ) domain from the adaptor protein syntrophin (see Table 1, below).
By varying the number of repeats of these interaction domains, the ratio of individual pathway enzymes co-localized to the resultant complex could be controlled. Scaffolds were built with a single GBD domain for recruiting AtoB and varying numbers of SH3 and PDZ domains for recruiting HMGS and HMGR, respectively. A matrix of scaffolds was made with the architecture (N-terminal to C-terminal) of GBDxSH3yPDZz where x=1 and y and z were varied to be 1, 2, or 4. For separate inducible control, the pathway enzymes were placed under transcriptional control of the tetracycline-inducible promoter (Ptet), and the scaffolds were under transcriptional control of the arabinose-inducible promoter (PBAD). In an effort to lower the metabolic load imposed on the production host, mevalonate production experiments were conducted with low expression levels of the mevalonate pathway enzymes (7 nM aTc) and a high scaffold expression level (250 μM arabinose) to improve pathway efficiency.

B1: G1S2P2: optimized scaffold polypeptide with 1, 2, and 2 repeats of GBD, SH3, and PDZ domains (SEQ ID NO:37) (protein)
chain: MTKADIGTPSNFQHIGHVGWDPNTGFDLNNLDPELKNLFDMCGISEAQLKDRETSKVIYDFIEKTGGVEAVKNELRRQAPGSGSGSGGSMAEYVRALFDFNGNDEEDLPFKKGDILRIRDKPEEQWWNAEDSEGKRGMIPVPYVEKYGSGSGSGGSMAEYVRALFDFNGNDEEDLPFKKGDILRIRDKPEEQWWNAEDSEGKRGMIPVPYVEKYGSGSGSGGSMLQRRRVTVRKADAGGLGISIKGGRENKMPILISKIFKGLAADQTEALFVGDAILSVNGEDLSSATHDEAVQALKKTGKEVVLEVKYMKEVSPYFKGSGSGSGGSMLQRRRVTVRKADAGGLGISIKGGRENKMPILISKIFKGLAADQTEALFVGDAILSVNGEDLSSATHDEAVQALKKTGKEVVLEVKYMKEVSPYFKGS
For B1, the “change in mevalonate production with increasing concentrations of glycerol” value (glycerol as carbon source, increases saturated at approximately 4% glycerol) was “improved dramatically; also recorded: significant increases”, the “fold increase in mevalonate production compared to the unscaffolded pathway (G0S0P0)” value (low pathway enzyme expression (7 nM aTc), high scaffold expression (250 μM arabinose), 4% glycerol) was 77 fold and the “fold more mevalonate than G0S0P0-GFP” value (pathway under pTET, scaffold under pBAD, control expresses GFP instead of scaffold) was 77 fold.
